# Measurements: article doi:10.1101/2025.02.21.639368
# Molecular target: H1 NC99 HA trimer (full-length trimeric ectodomain of H1N1 A/New Caledonia/20/1999 hemagglutinin) (influenza A virus H1N1 A/New Caledonia/20/1999)
# Assay: cryo-EM structure; HA NC99 and Fab mixed at a molar ratio of 1:1.5 (HA protomer:Fab), 5 min at room temperature; graphene grids, 0.01 mg/ml
substance,measurement,value
H1 NC99 HA trimer (full-length trimeric ectodomain of H1N1 A/New Caledonia/20/1999 hemagglutinin) (natural protein),stoichiometry N,3
